This is an account of results in PMC8472264.

For the test, the target named is ArtB (untagged receptor-binding subunit of S. Typhimurium DT104 ArtAB) (Salmonella enterica Typhimurium DT104). The test is described as follows: SDS-PAGE of unboiled samples.

Broadly, the stoichiometry N is the number of molecules, sites or subunits per partner or assembly. Take “ArtB (untagged receptor-binding subunit of S. Typhimurium DT104 ArtAB) (natural protein)”: the stoichiometry N came to 5.
